Residue numbers refer to the chain shown, from its start.
T1: Human 46 mer peptide (RB exon of human CD45) (human)
T1 construct: synthetic peptide; also called CD45RB 46 mer
T1 peptide: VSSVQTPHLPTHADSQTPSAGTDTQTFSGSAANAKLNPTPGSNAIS

T2: Macaque 46 mer peptide (RB exon of macaque CD45RB) (macaque)
T2 construct: synthetic peptide
T2 peptide: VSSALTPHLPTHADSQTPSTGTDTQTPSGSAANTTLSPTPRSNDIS

T3: Human 18 mer peptide (human)
T3 construct: synthetic peptide from the RB exon
T3 peptide: VSSVQTPHLPTHADSQTPC

T4: Human 20.1 peptide (human)
T4 construct: synthetic peptide from the RB exon
T4 peptide: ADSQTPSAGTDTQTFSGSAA

T5: Human 20.2 peptide (human)
T5 construct: synthetic peptide from the RB exon
T5 peptide: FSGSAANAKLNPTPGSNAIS

T6: chimeric CD45RB (full length human CD45RB with the macaque RB exon) transiently expressed in CHO cells (human; macaque, UniProt P08575-9 26-33; P08575-9 81-1192)
T6 construct: whole chimeric protein on CHO cells; also called Macaque CD45RB CHO
T6 sequence: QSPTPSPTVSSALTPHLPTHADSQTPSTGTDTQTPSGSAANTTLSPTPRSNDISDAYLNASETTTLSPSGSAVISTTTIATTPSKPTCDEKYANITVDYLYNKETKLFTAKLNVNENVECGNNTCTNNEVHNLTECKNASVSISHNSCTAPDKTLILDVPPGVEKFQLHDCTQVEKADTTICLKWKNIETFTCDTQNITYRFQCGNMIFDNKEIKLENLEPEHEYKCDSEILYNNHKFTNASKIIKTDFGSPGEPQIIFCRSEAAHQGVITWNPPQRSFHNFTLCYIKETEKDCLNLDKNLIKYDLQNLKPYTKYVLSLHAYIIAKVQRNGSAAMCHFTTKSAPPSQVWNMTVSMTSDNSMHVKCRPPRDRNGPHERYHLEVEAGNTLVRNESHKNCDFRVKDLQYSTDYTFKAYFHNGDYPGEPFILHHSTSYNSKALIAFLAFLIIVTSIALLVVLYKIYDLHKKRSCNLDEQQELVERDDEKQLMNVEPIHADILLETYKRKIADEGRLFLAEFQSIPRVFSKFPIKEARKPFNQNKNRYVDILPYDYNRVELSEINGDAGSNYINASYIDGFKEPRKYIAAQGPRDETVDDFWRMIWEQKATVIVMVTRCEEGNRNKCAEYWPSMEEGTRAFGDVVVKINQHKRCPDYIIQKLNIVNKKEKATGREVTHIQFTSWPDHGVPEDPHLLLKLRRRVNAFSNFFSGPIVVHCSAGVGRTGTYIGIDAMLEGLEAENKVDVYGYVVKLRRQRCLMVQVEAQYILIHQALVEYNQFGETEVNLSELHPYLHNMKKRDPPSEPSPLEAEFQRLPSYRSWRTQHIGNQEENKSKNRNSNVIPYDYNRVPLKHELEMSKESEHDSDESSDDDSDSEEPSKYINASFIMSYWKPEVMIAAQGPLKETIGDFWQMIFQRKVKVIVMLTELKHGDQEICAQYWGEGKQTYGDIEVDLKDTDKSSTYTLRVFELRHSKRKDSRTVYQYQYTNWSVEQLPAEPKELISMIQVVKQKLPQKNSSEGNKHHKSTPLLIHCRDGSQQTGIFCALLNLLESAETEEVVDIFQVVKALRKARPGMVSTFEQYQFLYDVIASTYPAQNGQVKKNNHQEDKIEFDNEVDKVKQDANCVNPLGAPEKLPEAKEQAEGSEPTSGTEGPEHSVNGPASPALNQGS

B1: AB-CD45RB-XG2-636 (antibody, human IgG2, V domains shown)
VH: QVHLVESGGGLVKPGGSLRLSCAASGFTFINYYMTWIRQAPGKGLEWVSYISLSGSTIYYADSVKGRFTISRDNAKNSLFLQMNSLRAEDTAVYYCARRAATVTTFDYWGQGTLVTVSS
VL: EIVMTQSPATLSVSPGERATLSCRASQSVRSNLAWSQQKPGQAPRLLIYGASTRATGIPARFSGSGSGTEFTLTISSLQSEDFAVYYCQQYNNWPLTFGGGTKVEIK
notes: recombinant human IgG2 kappa; also called sc636
B2: AB-CD45RB-XG2-662 (antibody, human IgG2, V domains shown)
VH: QVQLVESGGDLVKPGGSLRLSCAASGFSFSGYYLSWIRQAPGKGLEWVSYISLSGSFIKYADSVKGRFTISRDNAKKTLHLQMNSLRAEDTAVYYCARRTGTTTVFDYWGQGTLVTVSS
VL: B1 VL with I2V, R30N, S36Y, K39R, A55V
notes: recombinant human IgG2 kappa; also called sc662
B3: AB-CD45RB-XG2-556 (antibody, human IgG2, V domains shown)
VH: QVQLQESGPGLVKPSETLSLTCTVSGGSISGYYWSWIRQPAGKGLEWIGRIHTTGKTAYNPSLKSRVIMSVDTSKNLFSLKLTSVTAADTAVYYCARDYDFLTGYFDYWGQGTLVTVSS
VL: DVVMTQSPLSLPVTLGQPASISCRSSQSLVYSDGNTYLNWFQQRPGHSPRRLIYKVSNWDSGVPDRFSGSGSGTDFTLKISRVEAEDVGIYYCMQGTHWPPTFGQGTRVEIK
notes: recombinant human IgG2 kappa; also called sc556
B4: AB-CD45RB-XG2-525 (antibody, human IgG2, V domains shown)
VH: QVQLVESGGGVVQPGRSLRVSCAASGFTFSNYGMHWVRQAPGKGLEWVAVIWYDGSKKFYADSVKGRFTISRDNSQNTLSLQMSSLRAEDTAVYYCARGGGDFDFWGQGTLVTVSS
VL: KIVMTQSPATLSVSPGERATLSCRASQSLSGSYLAWYQQRPGQAPRLLIYGASTRATGIPARFSGSGSGTEFTLTISSLQSEDFAVYYCQQYNKWPPLTFGGGTKVEIK
notes: recombinant human IgG2 kappa; also called sc525
B5: AB-CD45RB-XG2-439 (antibody, human IgG2, V domains shown)
VH: B4 VH with V20L, Q76K, T78M, L79Q, S80Y, S84D, F105Y, T110I
VL: B4 VL with K1E, S28N, S32K, R40K, R46S, L47R, A52T, I59V, F84S, K94N
notes: recombinant human IgG2 kappa; also called sc439
B6: AB-CD45RB-XG2-446 (antibody, human IgG2, V domains shown)
VH: B4 VH with R16K, V20L, S30R, Q76K, S80N, S84N, A97V, F105Y
VL: EIVMTQSPATLSVSLGERATLSCRASQNISGNYLAWYQQRPGQAPRRLIYSASSRATGIPDRFSGSGSGTEFTLTISSLQSEDFAVYYCQQYNNWPPLTFGGGTKVEMK
notes: recombinant human IgG2 kappa; also called sc446
B7: AB-CD45RB-XG2-026 (antibody, human IgG2, V domains shown)
VH: B4 VH with V20L, K57N, F59Y, Q76K, S80Y, S84N, F105Y
VL: B4 VL with K1E, A19V, S28T, L29I, R40K, S53F, K94N, K105R
notes: recombinant human IgG2 kappa; also called sc026; 1G10 (sc026)
B8: AB-CD45RB-XG2-593 (antibody, human IgG2, V domains shown)
VH: B4 VH
VL: B4 VL with L29V, S32N, N93G
notes: recombinant human IgG2 kappa; also called sc593
B9: AB-CD45RB-XG2-606 (antibody, human IgG2, V domains shown)
VH: B4 VH with V5A, V20L, V50I, Q76N, S80Y, Q82H, M83V, S84N, A88V, F103I
VL: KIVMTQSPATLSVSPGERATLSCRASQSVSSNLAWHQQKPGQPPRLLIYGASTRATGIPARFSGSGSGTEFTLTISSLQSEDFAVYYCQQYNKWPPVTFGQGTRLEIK
notes: recombinant human IgG2 kappa; also called sc606
B10: AB-CD45RB-XG2-487 (antibody, human IgG2, V domains shown)
VH: B4 VH with A23E
VL: B4 VL with L29V, S32N, N93G
notes: recombinant human IgG2 kappa; also called sc487
B11: AB-CD45RB-XG2-713 (antibody, human IgG2, V domains shown)
VH: B4 VH with V20L, S75F, Q76E, N77K, S80Y, S84N, F105Y
VL: B4 VL with K1E, R40K, G51S, K94N
notes: recombinant human IgG2 kappa; also called sc713
B12: AB-CD45RB-XG2-493 (antibody, human IgG2, V domains shown)
VH: B4 VH
VL: B4 VL with A9V, S26C, L29V, N93G
notes: recombinant human IgG2 kappa; also called sc493
B13: AB-CD45RB-XG2-502 (antibody, human IgG2, V domains shown)
VH: B4 VH with G42D
VL: B4 VL with L29V, S32N, Q39R, N93G
notes: recombinant human IgG2 kappa; also called sc502
B14: AB-CD45RB-XG2-275 (antibody, human IgG2, V domains shown)
VH: QVQLVESGGGVVQPGRSLRLSCAASGFTFSKFGMHWVRQAPDKGLEWVAVIWYDGTYKYYADSVKGRFTISRDNSKNTLYLQMNSLRAEDTAVYYCARGGGSFDYWGQGTLVTVSS
VL: DIVMTQTPLSLSVTPGQPASISCKSSQSLLHSDGKTFLYWYLQKPGQPPQLLIYEVSNRFSGVPDRFSGSGSGIDFTLKISRVEAEDVGVYYCMQSIQFPITFGQGTRLEIK
notes: recombinant human IgG2 kappa; also called sc275
B15: AB-CD45RB-XG2-413 (antibody, human IgG2, V domains shown)
VH: B14 VH with K31S, F32Y, T56S
VL: B14 VL with S32R, I74T
notes: recombinant human IgG2 kappa; also called sc413
B16: AB-CD45RB-XG2-416 (antibody, human IgG2, V domains shown)
VH: B14 VH with K31R, F32Y, D42G, T56S, Y57N, M83V
VL: B14 VL with S68G, I74T, K112E
notes: recombinant human IgG2 kappa; also called sc416
B17: AB-CD45RB-XG2-324 (antibody, human IgG2, V domains shown)
VH: B14 VH with T56S, V93A
VL: B14 VL
notes: recombinant human IgG2 kappa; also called sc324; 39E11 (sc324)
B18: AB-CD45RB-XG2-475 (antibody, human IgG2, V domains shown)
VH: AVQLLESGGGLIQPGGSLRLSCAASGFTFSSYAMSWVRQAPGKGLEWVSAISGSGGSTFYADSVRGRFTISRDNSKNTLYLQMNSLRVEDTAVYYCAKEVMGPIFFDYWGQGTLVTVSS
VL: EIVLTQSPGTLSLSPGERATLSCRASQSIISSALAWYQQKPGQAPRLLIYGASSRATGIPDRFSGSGSGTDFTLTISRLEPEDFAVYHCQQYGSTPLTFGGGTKVEIK
notes: recombinant human IgG2 kappa; also called sc475
B19: AB-CD45RB-XG2-569 (antibody, human IgG2, V domains shown)
VH: B3 VH with P61S
VL: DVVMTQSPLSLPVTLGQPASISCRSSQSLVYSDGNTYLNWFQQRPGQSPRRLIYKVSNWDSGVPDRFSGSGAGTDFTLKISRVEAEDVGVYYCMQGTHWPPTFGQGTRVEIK
notes: recombinant human IgG2 kappa; also called sc569

Target: T1, Human 46 mer peptide (RB exon of human …)
Assay: recombinant antibody on peptide

binding result	Binder
no binding	B1
no binding	B2
no binding	B3

Target: T2, Macaque 46 mer peptide (RB exon of …)
Assay: recombinant antibody on peptide

binding result	Binder
no binding	B4
no binding	B5
no binding	B6
no binding	B7
no binding	B8
no binding	B9
no binding	B10
no binding	B11
no binding	B12
no binding	B1
no binding	B2
no binding	B3

Target: T3, Human 18 mer peptide
Assay: recombinant antibody on peptide

binding result	Binder
no binding	B4
no binding	B5
no binding	B6
no binding	B7
no binding	B8
no binding	B9
no binding	B13
no binding	B10
no binding	B11
no binding	B12
no binding	B1
no binding	B2

Target: T4, Human 20.1 peptide
Assay: recombinant antibody on peptide

binding result	Binder
no binding	B4
no binding	B5
no binding	B6
no binding	B7
no binding	B8
no binding	B9
no binding	B10
no binding	B11
no binding	B12
no binding	B1
no binding	B2

Target: T5, Human 20.2 peptide
Assay: recombinant antibody on peptide

binding result	Binder
no binding	B14
no binding	B15
no binding	B16
no binding	B17
no binding	B4
no binding	B5
no binding	B6
no binding	B7
no binding	B8
no binding	B9
no binding	B13
no binding	B10
no binding	B11
no binding	B12
no binding	B18
no binding	B1
no binding	B2
no binding	B3
no binding	B19

Target: T6, chimeric CD45RB (full length human …)
Assay: transiently transfected CHO cells

binding result	Binder
no binding	B4
no binding	B5
no binding	B6
no binding	B7
no binding	B8
no binding	B9
no binding	B13
no binding	B10
no binding	B11
no binding	B12
no binding	B3

Reference: US20030232009A1 (Amgen, published 2003)
